Source: publication PMC5889866
pKd: −log10 of the molar value.

What was measured:
[1] = target: minicollagen peptide H-Gly-Pro-Arg-Gly-(Pro-Hyp-Gly)12-NH2; test: SPR; minicollagen peptide amine-coupled on a CM5 chip (BIACORE); collagen anchors as analyte, eight concentrations 100 nM-300 uM; 10 mM sodium HEPES pH 7.4, 150 mM NaCl, 1 mM CaCl2, 0.005% Tween-20; 20 ul/min; 25 C; equilibrium responses fitted; apparent KD
[2] = target: minicollagen peptide H-Gly-Pro-Arg-Gly-(Pro-Hyp-Gly)12-NH2; test: SPR; […] (BIACORE); […]; 10 mM sodium HEPES pH 7.4, 150 mM NaCl, 1 mM CaCl2, 0.005% Tween-20; 20 ul/min; 25 C; […]

Substance | pKd [1] | pKd [2]
CBD-CBD (s3a-s3b) of Clostridium histolyticum class I collagenase ColG (domain or fragment) | 4.35 | 
CBD (s3) of Clostridium histolyticum class II collagenase ColH (domain or fragment) |  | 3.12
CBD (s3b) of Clostridium histolyticum class I collagenase ColG (domain or fragment) | 4.34 | 
PKD-CBD (s2b-s3) of Clostridium histolyticum class II collagenase ColH (domain or fragment) |  | 3.35
